Where a chain is given by its changes, count along the chain named. Numbers in names are those of the source.

B1: human Spindly^2–359::Strep-tag II (N-terminal coiled-coil region) (domain or fragment, UniProt Q96EA4 2-359, looked up)
chain: EADIITNLRCRLKEAEEERLKAAQYGLQLVESQNELQNQLDKCRNEMMTMTESYEQEKYTLQREVELKSRMLESLSCECEAIKQQQKMHLEKLEEQLSRSHGQEVNELKTKIEKLKVELDEARLSEKQLKHQVDHQKELLSCKSEELRVMSERVQESMSSEMLALQIELTEMESMKTTLKEEVNELQYRQEQLELLITNLMRQVDRLKEEKEEREKEAVSYYNALEKARVANQDLQVQLDQALQQALDPNSKGNSLFAEVEDRRAAMERQLISMKVKYQSLKKQNVFNREQMQRMKLQIATLLQMKGSQTEFEQQERLLAMLEQKNGEIKHLLGEIRNLEKFKNLYDSMESKPSVDSG
B2: GST::LIC1::6×His C-terminal region (residues 388–523) (domain or fragment, human, UniProt Q9Y6G9 388-523, looked up)
chain: PTAAGRPVDASPRVPGGSPRTPNRSVSSNVASVSPIPAGSKKIDPNMKAGATSEGVLANFFNSLLSKKTGSPGGPGVSGGSPAGGAGGGSSGLPPSTKKSGQKPVLDVHAELDRITRKPVTVSPTTPTSPTEGEAS
B3: human Spindly^2–359 F258A::Strep-tag II (domain or fragment, UniProt Q96EA4 2-359, looked up)
chain: B1 chain with F257A
B4: human BICD2^2–422::Strep-tag II (domain or fragment, UniProt Q8TD16 2-422, looked up)
chain: SAPSEEEEYARLVMEAQPEWLRAEVKRLSHELAETTREKIQAAEYGLAVLEEKHQLKLQFEELEVDYEAIRSEMEQLKEAFGQAHTNHKKVAADGESREESLIQESASKEQYYVRKVLELQTELKQLRNVLTNTQSENERLASVAQELKEINQNVEIQRGRLRDDIKEYKFREARLLQDYSELEEENISLQKQVSVLRQNQVEFEGLKHEIKRLEEETEYLNSQLEDAIRLKEISERQLEEALETLKTEREQKNSLRKELSHYMSINDSFYTSHLHVSLDGLKFSDDAAEPNNDAEALVNGFEHGGLAKLPLDNKTSTPKKEGLAPPSPSLVSDLLSELNISEIQKLKQQLMQMEREKAGLLATLQDTQKQLEHTRGSLSEQQEKVTRLTENLSALRRLQASKERQTALDNEKDRDSHEDG

The target of test [1] is GST::LIC1::6×His, full-length dynein light intermediate chain 1 (residues 1–523) (human, UniProt Q9Y6G9 1-523). The experiment in a line: pull-down.
The target in test [2] is B1. The experiment in a line: pull-down.

B1: the binding result in test [1] is “binds”.

With B2, the binding result in test [2] is recorded as “binds”.

Take B3: the binding result in test [1] was “binds”.

Consider B4, for which the binding result in test [1] is recorded as “binds”.
